Consider one molecule from patent US20060165695A1 (Kyowa Kirin, published 2006).

The target of test [1] is T1, human insulin-like growth factor I (hIGF-I) (human, UniProt P05019 49-118).
T1 construct: mature; In the ELISAs it was immobilised as a conjugate with methylated BSA; In SPR it was amine-coupled to the chip; also called human IGF-I; recombinant hIGF-I
The test is described as follows: SPR (Biacore 2000), ratio of KA values. On the procedure:
(§1) In order to analyze binding activity of the anti-hIGF antibody KM1468 to an antigen hIGF-I or hIGF-II, binding strengths of the anti-hIGF antibody KM1468, a commercially available anti-hIGF-I antibody sm1.2 and a commercially available anti-hIGF-II antibody S1F2 to hIGF-I and hIGF-II were measured in the following manner using the biosensor Biacore 2000 (manufactured by BIACORE) use of a surface plasmon resonance. HBS-EP (10 mM HEPES, 150 mM NaCl, 3 mM EDTA, 0.005% Tween 20, pH 7.4) (manufactured by BIACORE) was used for the dilution of analytes and as the reaction buffer.
(§2) The reaction was carried out at 25° C. Association rate constant Kass and dissociation constant Kdiss were calculated from the binding reaction curves at respective concentrations, and the binding constant KA (M⁻¹) of each of these antibodies was calculated. The binding constant KA is calculated by KA=Kass/Kdiss.

Test [2] concerns the target T2, human insulin-like growth factor II (hIGF-II) (human, UniProt P01344 25-91).
T2 construct: In the ELISA it was immobilised as a conjugate with methylated BSA; In SPR it was amine-coupled to the chip; also called human IGF-II; methylated BSA-hIGF-II (immobilised conjugate)
Nature of the test: SPR (Biacore 2000), ratio of KA values. On the procedure:
as §1, §2

Test [3] addresses T3, hIGF-I partial peptide p1-18 (human).
T3 peptide: GPETLSGAELVDALQFVC
Nature of the test: competitive ELISA: KM1468 (4.0 µg/ml) on immobilised methylated BSA-hIGF-I, peptide as competitor.

Test [4] deals with T4, hIGF-I partial peptide p14-30 (human).
T4 peptide: CLQFVAGDRGFYFNKPTG
The test is described as above.

Test [5] addresses T5, hIGF-I partial peptide p24-35 (human).
T5 peptide: CYFNKPTGYGSSS
Described as above.

Test [6] concerns the target T6, hIGF-I partial peptide p29-41 (human).
T6 peptide: CTGYGSSSRRAPQT
The description is as above.

The target in test [7] is T7, hIGF-I partial peptide p36-47 (human).
T7 peptide: RRAPQTGIVDEC
Described as above.

The target of test [8] is T8, hIGF-I partial peptide p41-56 (human).
T8 peptide: CTGIVDEAAFRSADLRR
Described as above.

Test [9] has as its target T9, hIGF-I partial peptide p52-70 (human).
T9 peptide: CDLRRLEMYAAPLKPAKSA
The description is as above.

For test [10], the target named is T10, hIGF-I partial peptide p53-61 (human).
T10 peptide: DLRRLEMYC
Described as above.

Test [11] has as its target T11, hIGF-I partial peptide p61-70 (human).
T11 peptide: CAPLKPAKSA
The test is described as above.

Test [12] addresses T12, hIGF-I partial peptide p41-56C (human).
T12 peptide: CTGIVDECCFRSCDLRR
Described as above.

For test [13], the target named is T1, human insulin-like growth factor I …. Nature of the test: SPR (Biacore 2000), hIGF-I amine-coupled to CM-5 chip, antibody as analyte, 25 °C; KA=Kass/Kdiss. The method, then:
as §1, §2

Test [14] addresses T2, human insulin-like growth factor II …. Nature of the test: SPR (Biacore 2000), hIGF-II amine-coupled to CM-5 chip, antibody as analyte, 25 °C; KA=Kass/Kdiss. On the procedure:
as §1, §2

The target of test [15] is T13, human insulin (manufactured by Wako Pure Chemical Industries) (human, UniProt P01308 25-54; P01308 90-110).
T13 construct: Bought reagent
The test is described as follows: competitive ELISA: KM1468 (0.6 µg/ml) on immobilised methylated BSA-hIGF-I or methylated BSA-hIGF-II, insulin as competitor. The text has this:
Cross reactivity of the purified anti-hIGF antibody KM1468 with hIGF-II and human insulin was examined by the competitive ELISA shown below. As the antigens, hIGF-I (manufactured by Pepro Tech), hIGF-II (manufactured by Pepro Tech) and human insulin (manufactured Wako Pure Chemical Industries) were used.
The methylated BSA-hIGF-I antigen prepared in Example 1(1) or a methylated BSA-hIGF-II antigen prepared in the same manner as in Example 1(1) was immobilized on a plate in accordance with the method shown in Example 1(4), at a concentration of 0.1 μg/ml in the case of the methylated BSA-hIGF-I antigen, or at a concentration of 1.0 μg/ml in the case of the methylated BSA-hIGF-II antigen, KM1468 diluted to 0.6 μg/ml was dispensed therein in 25 μl/well portions, and then each of 4-fold serial dilutions of hIGF-I, hIGF-II or human insulin prepared by starting from 20 μg/ml was dispensed in 25 μl/well portions, mixed and allowed to react at room temperature for 1 hour. After the reaction and subsequent washing with Tween-PBS, 1,000 times-diluted peroxidase-labeled rabbit anti-rat Ig antibody (manufactured by DAKO) was added in 50 μl/well portions as the secondary antibody in the case of the anti-hIGF antibody KM1468. […] The results are represented by relative values (%) wherein OD415 when an antibody alone is added is defined as 100.

T1 sequence (P05019 49-118): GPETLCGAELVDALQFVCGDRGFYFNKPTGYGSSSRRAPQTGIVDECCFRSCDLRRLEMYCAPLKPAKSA
T2 sequence (P01344 25-91 limits assumed): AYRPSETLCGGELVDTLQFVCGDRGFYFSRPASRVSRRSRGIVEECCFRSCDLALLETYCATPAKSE
T13 sequence (P01308 25-54 limits assumed, chain 1 of 2): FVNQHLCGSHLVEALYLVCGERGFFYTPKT
T13 sequence (P01308 90-110 limits assumed, chain 2 of 2): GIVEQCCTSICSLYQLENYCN

B1: anti-hIGF rat monoclonal antibody KM1468 (antibody, V domains shown)
VH: EVHLVESGGGLVQPGRSLKLSCAASGFTFSNYYMTWVRQAPTKGLEWVAYISSGGGSTYYRDSVKGRFTISRDNAKSTLYLQMDSLRSEDTATYYCTTEDYGYWFAYWGQGTLVTVSS
VL: EIVLTQSPTTMAASPGEKVTITCRASSSVSYMHWFQQKSGTSPKPWIYGTSKLASGVPDRFSGSGSGTSYSLTISSMEAEDAATYYCLQRSSYPPTFGAGTKLELKR
notes: Rat IgG2b with kappa L chain, purified from ascites; The ranges 20-137 and 23-129 are counted from the first residue of the entry; also called anti-hIGF antibody KM1468; anti-hIGF rat antibody KM1468
Consider B1, for which the figures for the “fold KA versus S1F2” value in [1] and in test [2] were ~18 fold and ~3.6 fold, respectively. Further, the “fold KA versus sm1.2” value in test [1] is ~42 fold; in test [2] it was ~120 fold. The binding result in test [3], in test [4], in test [5], in [6], in [7] and in [8] was “no binding” throughout. Besides, the binding result in [9], in test [10], in [11], in test [12] and in test [15] was “no binding” each time. Further, the Ka in test [13] is 7.86e+09 M⁻¹; in test [14] it was 8.63e+09 M⁻¹.
